Experimental findings from publication PMC7062188, “The crystal structure of human forkhead box N1 in complex with DNA reveals the structural basis for forkhead box family specificity” are described below.

Data set [1] concerns the target T1, FOXN1 1-614 (human, UniProt O15353 1-614).
T1 sequence: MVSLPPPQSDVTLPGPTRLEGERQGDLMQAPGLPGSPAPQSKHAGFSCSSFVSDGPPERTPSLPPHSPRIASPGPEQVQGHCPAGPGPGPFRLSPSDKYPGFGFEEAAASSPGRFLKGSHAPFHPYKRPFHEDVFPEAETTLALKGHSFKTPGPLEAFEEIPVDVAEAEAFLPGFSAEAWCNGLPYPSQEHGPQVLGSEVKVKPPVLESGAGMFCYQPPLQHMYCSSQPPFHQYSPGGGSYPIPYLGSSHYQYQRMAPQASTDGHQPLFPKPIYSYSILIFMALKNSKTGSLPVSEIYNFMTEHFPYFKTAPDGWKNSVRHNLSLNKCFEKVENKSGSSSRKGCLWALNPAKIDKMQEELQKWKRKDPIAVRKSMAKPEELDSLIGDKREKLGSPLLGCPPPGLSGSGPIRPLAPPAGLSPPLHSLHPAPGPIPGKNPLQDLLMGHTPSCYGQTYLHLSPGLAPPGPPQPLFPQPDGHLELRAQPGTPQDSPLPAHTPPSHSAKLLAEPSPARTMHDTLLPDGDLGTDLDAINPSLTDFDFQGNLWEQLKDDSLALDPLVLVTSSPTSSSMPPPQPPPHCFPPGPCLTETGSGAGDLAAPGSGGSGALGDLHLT
Kind of data set: fluorescence polarization; EMSA: 50 mM Tris-HCl pH 7.5, 25 mM NaCl, 0.5 mM EDTA, 0.1% Tween 20, 2 mM DTT, 5% glycerol, 30 min room temperature; FP: 10 mM HEPES pH 7.5, 50 mM NaCl, 1 mM TCEP, 10 nM probe. The conditions noted are these: protein: recombinant; tags: His tag (pNIC28-Bsa4), cleaved with TEV; label: 3' FITC on strand 1; blunt. On the technique in general: Fluorescence polarisation rises when a labelled molecule tumbles more slowly, as on binding a larger partner.

Data set [2] has as its target T2, FOXN1 forkhead domain (human, UniProt O15353 270-366).
T2 sequence: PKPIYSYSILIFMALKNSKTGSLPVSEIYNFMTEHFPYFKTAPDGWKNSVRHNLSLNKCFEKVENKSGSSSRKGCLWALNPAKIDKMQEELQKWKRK
The data set can be described thus: X-ray crystallography; 1.6 A structure; crystals at pH 4.5; EMSA: 50 mM Tris-HCl pH 7.5, 25 mM NaCl, 0.5 mM EDTA, 0.1% Tween 20, 2 mM DTT, 5% glycerol, 30 min room temperature; FP: 10 mM HEPES pH 7.5, 50 mM NaCl, 1 mM TCEP, 10 nM probe. The conditions noted are these: protein: recombinant; tags: His tag (pNIC28-Bsa4), cleaved with TEV; blunt. (In general: Mobility shift assays separate free from complexed probe on a gel.)

Data set [3] addresses T1, FOXN1 1-614. Kind of data set: EMSA; apparent Kd; multiple shifted species; EMSA: 50 mM Tris-HCl pH 7.5, 25 mM NaCl, 0.5 mM EDTA, 0.1% Tween 20, 2 mM DTT, 5% glycerol, 30 min room temperature; FP: 10 mM HEPES pH 7.5, 50 mM NaCl, 1 mM TCEP, 10 nM probe. The settings on record: protein: recombinant; tags: His tag (pNIC28-Bsa4), cleaved with TEV; label: 32P on forward strand (5', T4 PNK); blunt.

For data set [4], the target named is T2, FOXN1 forkhead domain. The data set can be described thus: EMSA; no significant binding over the concentration range tested; EMSA: 50 mM Tris-HCl pH 7.5, 25 mM NaCl, 0.5 mM EDTA, 0.1% Tween 20, 2 mM DTT, 5% glycerol, 30 min room temperature; FP: 10 mM HEPES pH 7.5, 50 mM NaCl, 1 mM TCEP, 10 nM probe. The settings on record: protein: recombinant; tags: His tag (pNIC28-Bsa4), cleaved with TEV; label: 32P on forward strand (5', T4 PNK); blunt.

For data set [5], the target named is T1, FOXN1 1-614. The data set can be described thus: EMSA; apparent Kd; EMSA: 50 mM Tris-HCl pH 7.5, 25 mM NaCl, 0.5 mM EDTA, 0.1% Tween 20, 2 mM DTT, 5% glycerol, 30 min room temperature; FP: 10 mM HEPES pH 7.5, 50 mM NaCl, 1 mM TCEP, 10 nM probe. The settings on record: protein: recombinant; tags: His tag (pNIC28-Bsa4), cleaved with TEV; label: 32P on forward strand (5', T4 PNK); blunt.

B1: tandem FKH FP probe (dsDNA)
DNA 1: GCAGCATAAACAACAGAGCGATAAACCAGGG
DNA 2: CCCTGGTTTATCGCTCTGTTGTTTATGCTGC
Take B1: the Kd with FOXN1 1-614 [1] came out at 85 ± 11 nM.

B2: Psmb11 FHL 13-mer (dsDNA)
DNA 1: TGAAGACGCCACC
DNA 2: GGTGGCGTCTTCA
Regarding B2, in the data set with FOXN1 forkhead domain [2], the binding result was “binds”.

B3: PSMA7 tandem FHL EMSA probe (dsDNA)
DNA 1: GCAGCAGACGCAACAGAGCGAGACGCCAGGG
DNA 2: CCCTGGCGTCTCGCTCTGTTGCGTCTGCTGC
With B3, the Kd in the data set with FOXN1 1-614 [3] stood at 82 ± 8 nM. Besides, the binding result with FOXN1 forkhead domain [4] is given as “no binding”.

B4: tandem FHL FP probe (dsDNA)
DNA 1: B3 DNA 1
DNA 2: B3 DNA 2
For the molecule B4, in the data set with FOXN1 1-614 [1], the Kd turned out to be 38 ± 3.3 nM.

B5: tandem FKH EMSA probe (dsDNA)
DNA 1: AGCATAAACAACAGAGCGATAAACCAGG
DNA 2: CCTGGTTTATCGCTCTGTTGTTTATGCT
As to B5, the Kd in the data set with FOXN1 1-614 [5] is 205 ± 21 nM.
